According to IntAct's records for PubMed 10230800:

B1: Slowpoke-binding protein (Drosophila melanogaster (Fruit fly)), Q8IPH9 (parent)
chain: MFKFNKAAQQQRIDNRNSAVTGHDPFVRPPVPEKKVRNIMKKLHKANGLKRSNSAIEFDVSALTAANRRQIYSSNRSASSEQDNSDLSEHSEKSPLVSARLDNLARLFFSKSMPAETGSRDTIDSVLTTRPNIKYQYSALDSGNGIVERSPRERAQREKALNATQEWIQGANGRYEVIAHLDEIGSRHGKNWFLVTDASVRTDRLQTLLPLPPDCVAFEDLPPNECAREILMELLGSLHHPYIYPVLDLGFLRNSSYNYACLVTPFNSRGSLKDLIYKAQWNEPWARKYTRKPNGLPVSQVQRLGRQILEALLFLKERGFPLHGHLHSGNVILQNGAARLSGLENGLLGLSSRINAVMWSRSVTEIENVDIVCFGHLLYEMCTGQELTTPKPSMRVLEMELQHYPQIGQTRKQILEILGLIFEPPSGVCPSVEDLVLCDLFRSIDLRELRGPCFSTIKPSLSRSTLNLLQAVKKRQCASLGHSLSEANSPCTPPSTPHDRRTGVLPAPYEVFRMY
partner: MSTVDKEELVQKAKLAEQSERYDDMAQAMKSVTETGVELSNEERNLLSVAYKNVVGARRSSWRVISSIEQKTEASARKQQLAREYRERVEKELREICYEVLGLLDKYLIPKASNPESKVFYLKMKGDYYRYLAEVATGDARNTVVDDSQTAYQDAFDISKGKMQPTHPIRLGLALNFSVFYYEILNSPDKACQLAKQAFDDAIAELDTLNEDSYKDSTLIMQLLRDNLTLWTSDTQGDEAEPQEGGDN

Variants of: B1
Conditions: with 1433z_drome 14-3-3zeta

effect of a mutation on the interaction | Variant
decreasing interaction strength | S54A;S79A
